EP3470426A1 (Numab Therapeutics AG, dated 2019)

Tests used:
Experiment in all cases: cell-based or functional assay
[1] = target: human PD-L1 on cells (human, UniProt Q9NZQ7 19-290)
[2] = target: T1, CD137 on Jurkat NFkB reporter cells (human, UniProt Q07011 24-255)
[3] = target: T1, CD137 on Jurkat NFkB reporter cells; remark: listed apart in the source
[4] = target: T1, CD137 on Jurkat NFkB reporter cells; remark: listed apart in the source
[5] = target: T1, CD137 on Jurkat NFkB reporter cells; remark: listed apart in the source
[6] = target: T1, CD137 on Jurkat NFkB reporter cells; remark: listed apart in the source
[7] = target: T1, CD137 on Jurkat NFkB reporter cells; remark: listed apart in the source
[8] = target: T1, CD137 on Jurkat NFkB reporter cells; remark: listed apart in the source

B1: PRO1013 (scFv)
scFv: DIQMTQSPSSLSASVGDRVTITCQASQSIGTYLAWYQQKPGKAPKLLIYRAFILASGVPSRFSGSGSGTDFTLTISSLQPEDFATYYCQSNFYSDSTTIGPNAFGTGTKVTVLGGGGGSGGGGSGGGGSGGGGSQVQLVQSGAEVKKPGASVKVSCKASGFSFNSDYWIYWVRQAPGQGLEWMGSIYGGSSGNTQYASWAQGRVTMTRDTSISTAYMELSSLRSEDTAVYYCARGYVDYGGATDLWGQGTLVTVSS
IC50, NFAT-luciferase reporter gene assay [1]: 0.0213 mg/L

B2: PRO1059 (bispecific antibody, human IgG1, kappa, L234A L235A)
light: DIQMTQSPSSLSASVGDRVTITCQASQSINDYLAWYQQKPGKAPKLLIYKASTLASGVPSRFSGSGSGTDFTLTISSLQPEDFATYYCQQGYIITDIDNVFGTGTKVTVLGTVAAPSVFIFPPSDEQLKSGTASVVCLLNNFYPREAKVQWKVDNALQSGNSQESVTEQDSKDSTYSLSSTLTLSKADYEKHKVYACEVTHQGLSSPVTKSFNRGECGGGGSGGGGSIQMTQSPSSLSASVGDRVTITCQASQSINNVLAWYQQKPGKAPKLLIYRASTLASGVPSRFSGSGSGTDFTLTISSLQPEDFATYYCQSSYGNYGDFGTGTKVTVLGGGGGSGGGGSGGGGSGGGGSQVQLQESGPGLVKPSETLSLTCKVSGFSFSNSYWICWIRQPPGKGLEWIGCTFVGSSDSTYYANWAKGRVTISVDSSKNQFSLKLSSVTAADTAVYYCARHPSDAVYGYANNLWGQGTLVTVSS
heavy: QVQLQESGPGLVKPSETLSLTCKVSGFSFSSGYDMCWIRQPPGKGLEWIGCVVAGSVDITYYASWAKGRVTISVDSSKNQFSLKLSSVTAADTAVYYCARKDAYSDAFNLWGQGTLVTVSSASTKGPSVFPLAPSSKSTSGGTAALGCLVKDYFPEPVTVSWNSGALTSGVHTFPAVLQSSGLYSLSSVVTVPSSSLGTQTYICNVNHKPSNTKVDKRVEPKSCDKTHTCPPCPAPEAAGGPSVFLFPPKPKDTLMISRTPEVTCVVVDVSHEDPEVKFNWYVDGVEVHNAKTKPREEQYNSTYRVVSVLTVLHQDWLNGKEYKCKVSNKALGAPIEKTISKAKGQPREPQVYTLPPSREEMTKNQVSLTCLVKGFYPSDIAVEWESNGQPENNYKTTPPVLDSDGSFFLYSKLTVDKSRWQQGNVFSCSVMHEALHNHYTQKSLSLSPGK
IC50, NFAT-luciferase reporter gene assay [1]: 0.0938 mg/L

B3: PRO830 (scFv)
scFv: DIQMTQSPSSLSASVGDRVTITCQASQSINDYLAWYQQKPGKAPKLLIYKASTLASGVPSRFSGSGSGTDFTLTISSLQPEDFATYYCQQGYIITDIDNVFGTGTKVTVLGGGGGSGGGGSGGGGSGGGGSQVQLQESGPGLVKPSETLSLTCKVSGFSFSSGYDMCWIRQPPGKGLEWIGCVVAGSVDITYYASWAKGRVTISVDSSKNQFSLKLSSVTAADTAVYYCARKDAYSDAFNLWGQGTLVTVSS
IC50, NFAT-luciferase reporter gene assay [1]: 0.0429 mg/L

B4: PRO1057 (other)
chain: DIQMTQSPSSLSASVGDRVTITCQASQSINDYLAWYQQKPGKAPKLLIYKASTLASGVPSRFSGSGSGTDFTLTISSLQPEDFATYYCQQGYIITDIDNVFGTGTKVTVLGGGGGSQVQLQESGPGLVKPSETLSLTCKVSGFSFSNSYWICWIRQPPGKGLEWIGCTFVGSSDSTYYANWAKGRVTISVDSSKNQFSLKLSSVTAADTAVYYCARHPSDAVYGYANNLWGQGTLVTVSSGGGGSGGGGSGGGGSGGGGSIQMTQSPSSLSASVGDRVTITCQASQSINNVLAWYQQKPGKAPKLLIYRASTLASGVPSRFSGSGSGTDFTLTISSLQPEDFATYYCQSSYGNYGDFGTGTKVTVLGGGGGSQVQLQESGPGLVKPSETLSLTCKVSGFSFSSGYDMCWIRQPPGKGLEWIGCVVAGSVDITYYASWAKGRVTISVDSSKNQFSLKLSSVTAADTAVYYCARKDAYSDAFNLWGQGTLVTVSSGGGGSGGGGSVVMTQSPSSLSASVGDRVTITCQASQIISSRSAWYQQKPGQPPKLLIYQASKLASGVPSRFSGSGSGTDFTLTISSLQPEDFATYYCQCTYIDSNFGAFGGGTKLTVLGGGGGSGGGGSGGGGSGGGGSEVQLVESGGGLVQPGGSLRLSCAASGFSFSSSYWICWVRQAPGKGLEWVGCVFTGDGTTYYASWAKGRFTISRDNSKNTVYLQMNSLRAEDTATYFCARPVSVYYYGMDLWGQGTLVTVSS
IC50, NFAT-luciferase reporter gene assay, with HSA [1]: 0.665 mg/L | EC50, NFkB-luciferase reporter, PD-L1 expressing CHO cells, 6h, + HSA [2]: 0.112 mg/L | EC50, NFkB-luciferase reporter, PD-L1 expressing CHO cells, 24h, + HSA [3]: 0.792 mg/L | EC50, NFkB-luciferase reporter, HCC827 with IFNy stimulation, 24h, +HSA [4]: 0.115 mg/L | EC50, NFkB-luciferase reporter, HCC827 without IFNy stimulation, 24h, +HSA [4]: 0.0766 mg/L | max. activation (%), NF-kB reporter, CHO-PD-L1, HSA yes, 24h [5]: 663%

B5: PRO1058 (other)
chain: DIQMTQSPSSLSASVGDRVTITCQASQSINDYLAWYQQKPGKAPKLLIYKASTLASGVPSRFSGSGSGTDFTLTISSLQPEDFATYYCQQGYIITDIDNVFGTGTKVTVLGGGGGSQVQLQESGPGLVKPSETLSLTCKVSGFSFNNDYDMCWIRQPPGKGLEWIGCIDTGDGSTYYASWAKGRVTISVDSSKNQFSLKLSSVTAADTAVYYCAREAASSSGYGMGYFDLWGQGTLVTVSSGGGGSGGGGSGGGGSGGGGSIQMTQSPSSLSASVGDRVTITCQSSQSVYDNNWLAWYQQKPGKAPKLLIYRASNLASGVPSRFSGSGSGTDFTLTISSLQPEDFATYYCQGTYLSSNWYWAFGTGTKVTVLGGGGGSQVQLQESGPGLVKPSETLSLTCKVSGFSFSSGYDMCWIRQPPGKGLEWIGCVVAGSVDITYYASWAKGRVTISVDSSKNQFSLKLSSVTAADTAVYYCARKDAYSDAFNLWGQGTLVTVSSGGGGSGGGGSVVMTQSPSSLSASVGDRVTITCQASQIISSRSAWYQQKPGQPPKLLIYQASKLASGVPSRFSGSGSGTDFTLTISSLQPEDFATYYCQCTYIDSNFGAFGGGTKLTVLGGGGGSGGGGSGGGGSGGGGSEVQLVESGGGLVQPGGSLRLSCAASGFSFSSSYWICWVRQAPGKGLEWVGCVFTGDGTTYYASWAKGRFTISRDNSKNTVYLQMNSLRAEDTATYFCARPVSVYYYGMDLWGQGTLVTVSS
EC50, NFkB-luciferase reporter, PD-L1 expressing CHO cells, 6h, + HSA [2]: 0.0709 mg/L | EC50, NFkB-luciferase reporter, PD-L1 expressing CHO cells, 24h, + HSA [3]: 0.121 mg/L | max. activation (%), NF-kB reporter, CHO-PD-L1, HSA yes, 24h [5]: 36.2%

B6: PRO1060 (bispecific antibody, human IgG1, kappa, L234A L235A)
light: DIQMTQSPSSLSASVGDRVTITCQASQSINDYLAWYQQKPGKAPKLLIYKASTLASGVPSRFSGSGSGTDFTLTISSLQPEDFATYYCQQGYIITDIDNVFGTGTKVTVLGTVAAPSVFIFPPSDEQLKSGTASVVCLLNNFYPREAKVQWKVDNALQSGNSQESVTEQDSKDSTYSLSSTLTLSKADYEKHKVYACEVTHQGLSSPVTKSFNRGEC
heavy: QVQLQESGPGLVKPSETLSLTCKVSGFSFSSGYDMCWIRQPPGKGLEWIGCVVAGSVDITYYASWAKGRVTISVDSSKNQFSLKLSSVTAADTAVYYCARKDAYSDAFNLWGQGTLVTVSSASTKGPSVFPLAPSSKSTSGGTAALGCLVKDYFPEPVTVSWNSGALTSGVHTFPAVLQSSGLYSLSSVVTVPSSSLGTQTYICNVNHKPSNTKVDKRVEPKSCDKTHTCPPCPAPEAAGGPSVFLFPPKPKDTLMISRTPEVTCVVVDVSHEDPEVKFNWYVDGVEVHNAKTKPREEQYNSTYRVVSVLTVLHQDWLNGKEYKCKVSNKALGAPIEKTISKAKGQPREPQVYTLPPSREEMTKNQVSLTCLVKGFYPSDIAVEWESNGQPENNYKTTPPVLDSDGSFFLYSKLTVDKSRWQQGNVFSCSVMHEALHNHYTQKSLSLSPGKGGGGSGGGGSIQMTQSPSSLSASVGDRVTITCQASQSINNVLAWYQQKPGKAPKLLIYRASTLASGVPSRFSGSGSGTDFTLTISSLQPEDFATYYCQSSYGNYGDFGTGTKVTVLGGGGGSGGGGSGGGGSGGGGSQVQLQESGPGLVKPSETLSLTCKVSGFSFSNSYWICWIRQPPGKGLEWIGCTFVGSSDSTYYANWAKGRVTISVDSSKNQFSLKLSSVTAADTAVYYCARHPSDAVYGYANNLWGQGTLVTVSS
IC50, NFAT-luciferase reporter gene assay [1]: 0.133 mg/L | EC50, NFkB-luciferase reporter, PD-L1 expressing CHO cells, 6h [2]: 0.0564 mg/L | EC50, NFkB-luciferase reporter, PD-L1 expressing CHO cells, 24h [3]: 0.0808 mg/L | EC50, NFkB-luciferase reporter, HCC827 with IFNy stimulation, 24h [4]: 0.0175 mg/L | EC50, NFkB-luciferase reporter, HCC827 without IFNy stimulation, 24h [4]: 0.0136 mg/L

B7: PRO963 (other)
chain: DIQMTQSPSSLSASVGDRVTITCQASQSINDYLAWYQQKPGKAPKLLIYKASTLASGVPSRFSGSGSGTDFTLTISSLQPEDFATYYCQQGYIITDIDNVFGTGTKVTVLGGGGGSQVQLQESGPGLVKPSETLSLTCKVSGFSFSNSYWICWIRQPPGKGLEWIGCTFVGSSDSTYYANWAKGRVTISVDSSKNQFSLKLSSVTAADTAVYYCARHPSDAVYGYANNLWGQGTLVTVSSGGGGSGGGGSGGGGSGGGGSIQMTQSPSSLSASVGDRVTITCQASQSINNVLAWYQQKPGKAPKLLIYRASTLASGVPSRFSGSGSGTDFTLTISSLQPEDFATYYCQSSYGNYGDFGTGTKVTVLGGGGGSQVQLQESGPGLVKPSETLSLTCKVSGFSFSSGYDMCWIRQPPGKGLEWIGCVVAGSVDITYYASWAKGRVTISVDSSKNQFSLKLSSVTAADTAVYYCARKDAYSDAFNLWGQGTLVTVSSGGGGSGGGGSIQMTQSPSSLSASVGDRVTITCQSSESVYSNNQLSWYQQKPGQPPKLLIYDASDLASGVPSRFSGSGSGTDFTLTISSLQPEDFATYYCAGGFSSSSDTAFGGGTKLTVLGGGGGSGGGGSGGGGSGGGGSEVQLVESGGGLVQPGGSLRLSCAASGFSLSSNAMGWVRQAPGKGLEYIGIISVGGFTYYASWAKGRFTISRDNSKNTVYLQMNSLRAEDTATYFCARDRHGGDSSGAFYLWGQGTLVTVSS
IC50, NFAT-luciferase reporter gene assay, with HSA [1]: 0.275 mg/L | max. activation (%), NF-kB reporter, CHO-PD-L1, HSA yes, 24h [5]: 369%

B8: PRO1123 (bispecific antibody)
chain: DIQMTQSPSSLSASVGDRVTITCQASQSINDYLAWYQQKPGKAPKLLIYKASTLASGVPSRFSGSGSGTDFTLTISSLQPEDFATYYCQQGYIITDIDNVFGTGTKVTVLGGGGGSQVQLQESGPGLVKPSETLSLTCKVSGFSFSNSYWICWVRQPPGKGLEWIGCTFVGSSDSTYYANWAKGRVTISVDSSKNQVSLKLSSVTAADTAVYFCARHPSDAVYGYANNLWGQGTLVTVSSGGGGSGGGGSGGGGSGGGGSIQMTQSPSSLSASVGDRVTITCQASQSINNVLAWYQQKPGKPPKLLIYRASTLASGVPSRFSGSGSGTDFTLTISSLQPEDFATYYCQSSYGNYGDFGTGTKVTVLGGGGGSQVQLQESGPGLVKPSETLSLTCKVSGFSFSSGYDMCWIRQPPGKGLEWIGCVVAGSVDITYYASWAKGRVTISVDSSKNQFSLKLSSVTAADTAVYYCARKDAYSDAFNLWGQGTLVTVSS
EC50, NFkB-luciferase reporter, CHO-PD-L1 cells [6]: 0.00575 mg/L | EC50, NFkB-luciferase reporter, HCC827 cells without IFNg [7]: 0.0161 mg/L | EC50, NFkB-luciferase reporter, HCC827 cells stimulated with IFNg [8]: 0.0119 mg/L | max. activation (%), NF-kB reporter, CHO-PD-L1 [5]: 219% | max. activation (%), NF-kB reporter, HCC827 +IFNg [5]: 154% | max. activation (%), NF-kB reporter, HCC827 -IFNg [5]: 123%
